How the values were obtained:
[1] = biological target: T1, human integrin α5β1 on cells (endogenous, HUVEC; tumor or endothelial-expressed) (human, UniProt P08648 42-1049; P05556 21-798); assay: FACS on HUVEC, geometric mean against mAb concentration, two-state equilibrium model
T1 construct: whole, on cells; also called cell surface integrin α5; endogenous α5β1
Method: The 22B5/DLE antibody was tested for its binding affinity to cell surface integrin α5 using a FACS assay, employing endogenous human integrin α5β1 expressing cells (HUVEC). Briefly, the cells were detached using trypsin-EDTA and washed with cold PBS. After being aliquoted into 96-well plates, the cells were blocked by serum and incubated with different concentrations of specific mAb for 1 hour at 4° C. Subsequently, the cells were washed and incubated with an anti-human κ secondary antibody conjugated with the R-PE fluorophore and analyzed using a FACSCalibur flow cytometer. 10,000 events were collected for each sample without applying any gating. For KD determination, the Geometric Mean of each sample histogram was calculated and plotted as a function of the mAb concentration. KD was calculated after fitting to a two-state equilibrium model.

[2] = biological target: T2, human recombinant α5β1 extracellular domain (human, UniProt P08648 42-995; P05556 21-728); assay: Biacore, antibody immobilised, α5β1 extracellular domain flowed, 25.0 C, 4.0 mM MgCl2
T2 construct: extracellular domain; also called α5β1 recombinant extracellular domain; extracellular domain of α5β1
Method: (§1) Binding kinetics and nominal avidity of 22B5/DLE to the extracellular domain of α5β1 was determined using Biacore analysis (Biacore AB, Uppsala, Sweden). To perform BIAcore kinetic analyses, the 22B5/DLE antibody was immobilized on a biosensor chip and various concentrations of human recombinant α5β1 extracellular domain were flowed across the surface at 25.0° C. (see FIG. 3). The binding data were fit globally to a simple one-to-one binding model with drifting baseline. 22B5/DLE binds reversibly to α5β1. […] The KD was greater when measured in the absence of divalent cations, consistent with cation-dependent activation of integrin.

Murine FcγRI = biological target: T3, Murine FcγRI (murine, UniProt P26151 25-297, limits assumed); assay: Biacore, KD against 22B5 wild type IgG1
T3 construct: Construct not described; also called mFcγRI
T3 sequence (looked up): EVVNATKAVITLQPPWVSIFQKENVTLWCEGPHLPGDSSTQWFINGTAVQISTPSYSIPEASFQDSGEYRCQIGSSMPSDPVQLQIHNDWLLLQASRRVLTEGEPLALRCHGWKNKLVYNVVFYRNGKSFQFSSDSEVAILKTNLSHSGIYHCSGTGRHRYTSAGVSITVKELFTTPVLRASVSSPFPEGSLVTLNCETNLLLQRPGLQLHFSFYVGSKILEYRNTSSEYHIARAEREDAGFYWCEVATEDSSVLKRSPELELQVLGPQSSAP
Method: (§2) The ability of 22B5/DLE, which contains the IgG1 DLE triple mutations (as discussed previously in Example 2), to enhance binding to the FcγRs was evaluated in a Biacore binding experiment. The FcγR binding affinities of 22B5/DLE were compared with the binding affinity of wild type (wt) IgG1. […] The binding affinity comparison of 22B5/DLE and wild type IgG1 was also evaluated against the murine Fcγ receptors. The greatest enhancement in binding was to the mFcγRIV, followed by mFcγRI, and mFcγRIII (see FIG. 5).

Human FcγRIIIa/158F = biological target: T4, Human FcγRIIIa/158F (human, UniProt P08637 17-208, limits assumed); assay: Biacore, KD against 22B5 wild type IgG1
T4 construct: also called Human FcγRIII/158F
Method: as §2

Human FcγRIIIa/158V = biological target: T5, Human FcγRIIIa/158V (human, UniProt P08637 17-208, limits assumed); assay: Biacore, KD against 22B5 wild type IgG1
T5 construct: also called Human FcγRIII/158V
Method: as §2

Murine FcγRIII = biological target: T6, Murine FcγRIII (murine, UniProt P08508 31-215, limits assumed); assay: Biacore, KD against 22B5 wild type IgG1
T6 construct: Construct not described; also called mFcγRIII
T6 sequence (looked up): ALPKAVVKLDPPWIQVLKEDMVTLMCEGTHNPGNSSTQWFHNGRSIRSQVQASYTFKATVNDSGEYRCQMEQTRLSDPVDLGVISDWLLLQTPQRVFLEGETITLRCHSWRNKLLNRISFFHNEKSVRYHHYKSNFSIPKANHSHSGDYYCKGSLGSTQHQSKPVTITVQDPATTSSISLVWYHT
Method: as §2

Murine FcγRIV = biological target: T7, Murine FcγRIV (murine, UniProt A0A0B4J1G0 21-203); assay: Biacore, KD against 22B5 wild type IgG1
T7 construct: Construct not described; also called mFcγRIV
T7 sequence: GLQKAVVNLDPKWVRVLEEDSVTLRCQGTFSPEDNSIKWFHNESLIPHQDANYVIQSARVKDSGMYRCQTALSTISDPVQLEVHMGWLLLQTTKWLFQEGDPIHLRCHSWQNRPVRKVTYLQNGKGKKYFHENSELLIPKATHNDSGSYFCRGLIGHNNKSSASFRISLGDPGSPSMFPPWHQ
Method: as §2

Human FcγRIIa/131R = biological target: T8, Human FcγRIIa/131R (human, UniProt P12318 36-218, limits assumed); assay: Biacore, KD against 22B5 wild type IgG1
T8 construct: Polymorphic variant 131R; construct not described
T8 sequence (looked up): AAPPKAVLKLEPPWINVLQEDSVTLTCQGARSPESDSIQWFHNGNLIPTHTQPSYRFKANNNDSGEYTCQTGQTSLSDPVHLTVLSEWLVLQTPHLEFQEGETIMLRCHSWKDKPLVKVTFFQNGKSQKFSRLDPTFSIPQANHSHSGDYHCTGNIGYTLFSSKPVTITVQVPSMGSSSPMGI
Method: as §2

Human FcγRI = biological target: T9, Human FcγRI (human, UniProt P12314 16-288, limits assumed); assay: Biacore, KD against 22B5 wild type IgG1
T9 construct: Construct used in Biacore is not described
Method: as §2

Human FcγRIIa/131H = biological target: T10, Human FcγRIIa/131H (human, UniProt P12318 36-218, limits assumed); assay: Biacore, KD against 22B5 wild type IgG1
T10 construct: Polymorphic variant 131H; construct not described
T10 sequence (looked up): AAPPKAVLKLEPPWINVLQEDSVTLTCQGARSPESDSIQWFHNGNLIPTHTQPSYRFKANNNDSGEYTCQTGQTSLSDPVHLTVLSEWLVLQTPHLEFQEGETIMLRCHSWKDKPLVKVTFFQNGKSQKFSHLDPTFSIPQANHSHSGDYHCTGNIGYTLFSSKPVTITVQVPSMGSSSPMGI
Method: as §2

[3] = biological target: T2, human recombinant α5β1 extracellular …; assay: Biacore, antibody immobilised, α5β1 extracellular domain flowed, 25.0 C, 4.0 mM CaCl2
Method: as §1

T2 sequence (P08648 42-995, chain 1 of 2): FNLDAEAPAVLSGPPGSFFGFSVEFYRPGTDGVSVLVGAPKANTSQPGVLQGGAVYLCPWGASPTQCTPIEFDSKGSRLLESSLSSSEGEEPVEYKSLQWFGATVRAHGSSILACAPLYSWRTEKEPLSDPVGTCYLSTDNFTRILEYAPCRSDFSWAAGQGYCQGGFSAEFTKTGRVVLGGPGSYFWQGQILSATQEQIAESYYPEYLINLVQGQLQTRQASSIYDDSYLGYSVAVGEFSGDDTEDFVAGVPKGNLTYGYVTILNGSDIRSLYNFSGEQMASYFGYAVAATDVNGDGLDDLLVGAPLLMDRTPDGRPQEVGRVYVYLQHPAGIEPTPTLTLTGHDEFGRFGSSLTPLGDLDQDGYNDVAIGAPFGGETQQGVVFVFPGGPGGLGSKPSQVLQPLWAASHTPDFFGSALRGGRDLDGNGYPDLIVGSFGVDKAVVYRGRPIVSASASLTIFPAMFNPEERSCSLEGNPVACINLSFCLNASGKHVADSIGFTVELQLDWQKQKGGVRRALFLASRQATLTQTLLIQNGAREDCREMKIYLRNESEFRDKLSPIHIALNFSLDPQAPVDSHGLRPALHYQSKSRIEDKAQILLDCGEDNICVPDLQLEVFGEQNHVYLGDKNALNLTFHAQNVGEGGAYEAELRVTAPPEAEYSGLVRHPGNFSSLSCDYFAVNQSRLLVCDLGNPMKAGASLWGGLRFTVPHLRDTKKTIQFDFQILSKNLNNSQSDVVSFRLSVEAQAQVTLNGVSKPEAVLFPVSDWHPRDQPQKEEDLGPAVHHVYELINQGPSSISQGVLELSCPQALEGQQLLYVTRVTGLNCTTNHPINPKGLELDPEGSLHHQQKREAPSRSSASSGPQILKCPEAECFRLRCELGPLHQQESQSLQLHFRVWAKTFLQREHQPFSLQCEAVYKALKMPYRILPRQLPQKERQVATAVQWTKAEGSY
T2 sequence (P05556 21-728, chain 2 of 2): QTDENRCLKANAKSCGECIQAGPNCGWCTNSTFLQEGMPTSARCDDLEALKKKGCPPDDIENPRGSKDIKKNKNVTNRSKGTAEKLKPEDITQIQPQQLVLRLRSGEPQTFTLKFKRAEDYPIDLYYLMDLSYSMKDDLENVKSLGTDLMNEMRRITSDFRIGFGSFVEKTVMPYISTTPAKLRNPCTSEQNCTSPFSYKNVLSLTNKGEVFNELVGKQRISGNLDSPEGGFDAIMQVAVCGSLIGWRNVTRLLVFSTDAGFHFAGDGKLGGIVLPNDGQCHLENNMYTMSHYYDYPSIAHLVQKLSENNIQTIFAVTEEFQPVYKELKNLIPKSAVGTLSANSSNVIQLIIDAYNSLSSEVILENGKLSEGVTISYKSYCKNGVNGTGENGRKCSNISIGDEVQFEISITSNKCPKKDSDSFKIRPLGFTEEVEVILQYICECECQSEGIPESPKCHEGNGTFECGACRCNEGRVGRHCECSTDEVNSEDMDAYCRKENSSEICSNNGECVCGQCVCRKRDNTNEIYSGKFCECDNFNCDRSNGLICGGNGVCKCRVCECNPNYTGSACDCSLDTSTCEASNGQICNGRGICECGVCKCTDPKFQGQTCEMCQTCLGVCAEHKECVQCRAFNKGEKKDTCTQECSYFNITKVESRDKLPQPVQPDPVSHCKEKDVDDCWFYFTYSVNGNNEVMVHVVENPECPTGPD
T5 sequence (P08637 17-208 F176V limits assumed): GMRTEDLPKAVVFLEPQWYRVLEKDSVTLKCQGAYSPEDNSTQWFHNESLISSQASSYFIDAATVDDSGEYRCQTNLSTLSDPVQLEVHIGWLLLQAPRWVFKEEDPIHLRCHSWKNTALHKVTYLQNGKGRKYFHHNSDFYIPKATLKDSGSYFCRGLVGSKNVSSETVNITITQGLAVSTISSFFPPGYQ
T1 sequence (P08648 42-1049, chain 1 of 2): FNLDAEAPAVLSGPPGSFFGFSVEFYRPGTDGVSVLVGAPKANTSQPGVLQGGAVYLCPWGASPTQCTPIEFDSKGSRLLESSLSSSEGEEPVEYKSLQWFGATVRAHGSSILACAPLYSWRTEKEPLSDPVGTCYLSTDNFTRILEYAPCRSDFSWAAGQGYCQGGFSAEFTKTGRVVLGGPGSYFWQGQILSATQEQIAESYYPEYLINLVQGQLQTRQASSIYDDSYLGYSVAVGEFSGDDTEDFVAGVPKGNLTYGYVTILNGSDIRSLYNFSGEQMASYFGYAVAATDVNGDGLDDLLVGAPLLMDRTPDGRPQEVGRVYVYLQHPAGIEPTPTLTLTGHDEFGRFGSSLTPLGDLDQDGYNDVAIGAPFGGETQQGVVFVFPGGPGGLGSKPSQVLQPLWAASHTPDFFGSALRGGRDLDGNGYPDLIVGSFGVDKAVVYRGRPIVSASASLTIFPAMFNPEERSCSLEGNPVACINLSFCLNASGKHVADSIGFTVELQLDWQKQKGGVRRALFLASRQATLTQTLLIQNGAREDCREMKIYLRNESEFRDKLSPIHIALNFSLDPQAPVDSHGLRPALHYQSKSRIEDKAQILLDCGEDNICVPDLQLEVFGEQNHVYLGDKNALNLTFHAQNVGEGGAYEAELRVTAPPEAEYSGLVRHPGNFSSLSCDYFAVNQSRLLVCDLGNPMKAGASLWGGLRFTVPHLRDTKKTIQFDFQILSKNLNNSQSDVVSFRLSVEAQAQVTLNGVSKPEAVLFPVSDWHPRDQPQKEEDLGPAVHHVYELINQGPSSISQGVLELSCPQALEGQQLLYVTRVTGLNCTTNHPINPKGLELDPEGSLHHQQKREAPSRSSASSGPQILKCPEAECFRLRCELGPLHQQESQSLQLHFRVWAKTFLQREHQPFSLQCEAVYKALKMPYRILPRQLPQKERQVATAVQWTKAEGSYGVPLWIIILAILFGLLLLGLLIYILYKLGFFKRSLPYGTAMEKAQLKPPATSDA
T1 sequence (P05556 21-798, chain 2 of 2): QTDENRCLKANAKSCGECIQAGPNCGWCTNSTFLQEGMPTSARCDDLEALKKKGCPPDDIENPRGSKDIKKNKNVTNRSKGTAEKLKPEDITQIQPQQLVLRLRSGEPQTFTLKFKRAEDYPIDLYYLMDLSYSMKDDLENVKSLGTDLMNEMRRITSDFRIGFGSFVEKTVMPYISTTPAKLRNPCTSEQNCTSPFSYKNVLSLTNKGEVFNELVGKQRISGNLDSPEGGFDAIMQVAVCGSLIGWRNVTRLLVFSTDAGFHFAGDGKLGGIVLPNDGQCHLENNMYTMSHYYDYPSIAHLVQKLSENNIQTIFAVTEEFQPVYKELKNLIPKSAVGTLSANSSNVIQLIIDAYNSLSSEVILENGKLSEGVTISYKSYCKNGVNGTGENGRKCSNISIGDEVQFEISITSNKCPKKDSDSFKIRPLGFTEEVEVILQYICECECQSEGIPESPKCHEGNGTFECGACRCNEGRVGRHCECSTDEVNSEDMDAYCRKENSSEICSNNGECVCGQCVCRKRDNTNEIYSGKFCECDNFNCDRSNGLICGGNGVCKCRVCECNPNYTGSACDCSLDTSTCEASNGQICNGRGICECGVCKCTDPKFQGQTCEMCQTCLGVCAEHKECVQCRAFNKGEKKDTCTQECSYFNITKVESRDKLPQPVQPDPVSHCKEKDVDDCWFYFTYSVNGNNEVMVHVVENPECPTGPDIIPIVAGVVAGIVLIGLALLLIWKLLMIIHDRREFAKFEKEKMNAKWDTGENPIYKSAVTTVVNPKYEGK
T9 sequence (P12314 16-288 limits assumed): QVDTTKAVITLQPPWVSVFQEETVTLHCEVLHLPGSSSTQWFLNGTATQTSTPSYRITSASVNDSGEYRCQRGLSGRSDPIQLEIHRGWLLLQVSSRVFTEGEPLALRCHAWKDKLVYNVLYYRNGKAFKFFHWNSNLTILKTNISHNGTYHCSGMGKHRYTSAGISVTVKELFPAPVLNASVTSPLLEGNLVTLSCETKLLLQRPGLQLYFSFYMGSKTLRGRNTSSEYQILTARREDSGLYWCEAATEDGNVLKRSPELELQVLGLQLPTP
T4 sequence (P08637 17-208 limits assumed): as the sequence (P08637 17-208 F176V limits assumed) above, with V160F counted along it

B1: 22B5/DLE (antibody, human IgG1, kappa)
heavy: QLQLQESGPGLVKPSETLSLTCTVSGGSISSSSYWGWIRQPPGKGLEWIGSIYYSGRNYNNPSLKSRVTISVDTSKNQFSLKLSSVTAADTAVYYCARHYYGSGSSYYYYDLDVWGQGTTVTVSSASTKGPSVFPLAPSSKSTSGGTAALGCLVKDYFPEPVTVSWNSGALTSGVHTFPAVLQSSGLYSLSSVVTVPSSSLGTQTYICNVNHKPSNTKVDKKVEPKSCDKTHTCPPCPAPELLGGPDVFLFPPKPKDTLMISRTPEVTCVVVDVSHEDPEVKFNWYVDGVEVHNAKTKPREEQYNSTYRVVSVLTVLHQDWLNGKEYKCKVSNKALPLPEEKTISKAKGQPREPQVYTLPPSREEMTKNQVSLTCLVKGFYPSDIAVEWESNGQPENNYKTTPPVLDSDGSFFLYSKLTVDKSRWQQGNVFSCSVMHEALHNHYTQKSLSLSPGK
light: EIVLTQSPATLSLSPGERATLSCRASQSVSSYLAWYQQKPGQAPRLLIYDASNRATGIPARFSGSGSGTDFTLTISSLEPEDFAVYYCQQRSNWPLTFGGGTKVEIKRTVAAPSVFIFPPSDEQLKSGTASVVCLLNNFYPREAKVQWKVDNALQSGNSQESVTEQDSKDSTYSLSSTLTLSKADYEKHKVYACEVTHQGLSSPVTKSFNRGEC
notes: Human IgG1 with Fc mutations S247D, A338L, I340E; the VH already holds the germline back-mutations I30S and N33S; also called 22B5 IgG1 DLE; 22B5 G1 DLE
A Kd [1] of 2.15 nM, a Kd [2] of 4.1 nM and a koff [2] of 0.0014 s⁻¹ were found for B1 in this work. For the same binder, the kon [2] was 340000 M⁻¹ s⁻¹, the “Fold enhancement over wt IgG1” value (Murine FcγRI) was 14 fold and the “Fold enhancement over wt IgG1” value (Human FcγRIIIa/158F) was 122 fold. For the same binder, the “Fold enhancement over wt IgG1” value (Human FcγRIIIa/158V) was 70 fold, the “Fold enhancement over wt IgG1” value (Murine FcγRIII) was 5 fold and the “Fold enhancement over wt IgG1” value (Murine FcγRIV) was 260 fold. For the same binder, the “Fold enhancement over wt IgG1” value (Human FcγRIIa/131R) was 2.3 fold, the “Fold enhancement over wt IgG1” value (Human FcγRI) was 6 fold and the “Fold enhancement over wt IgG1” value (Human FcγRIIa/131H) was 1.6 fold. For the same binder, the Kd [3] was 2.7 nM, the koff [3] was 0.0012 s⁻¹ and the kon [3] was 450000 M⁻¹ s⁻¹.

Reference: US20100330078A1 (Pfizer, published 2010)
